Test results as given in article PMC7417313 (2020).

Biological target: C3b C3b (Homo sapiens, UniProt P01024)
Assay: SPR

Sequence of C3b C3b (P01024 566-670): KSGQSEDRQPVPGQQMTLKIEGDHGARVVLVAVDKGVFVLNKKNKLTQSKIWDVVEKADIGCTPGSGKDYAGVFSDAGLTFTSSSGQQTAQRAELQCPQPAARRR

- Kd: 100 nM
B1: Factor H (protein)
chain: EDCNELPPRRNTEILTGSWSDQTYPEGTQAIYKCRPGYRSLGNVIMVCRKGEWVALNPLRKCQKRPCGHPGDTPFGTFTLTGGNVFEYGVKAVYTCNEGYQLLGEINYRECDTDGWTNDIPICEVVKCLPVTAPENGKIVSSAMEPDREYHFGQAVRFVCNSGYKIEGDEEMHCSDDGFWSKEKPKCVEISCKSPDVINGSPISQKIIYKENERFQYKCNMGYEYSERGDAVCTESGWRPLPSCEEKSCDNPYIPNGDYSPLRIKHRTGDEITYQCRNGFYPATRGNTAKCTSTGWIPAPRCTLKPCDYPDIKHGGLYHENMRRPYFPVAVGKYYSYYCDEHFETPSGSYWDHIHCTQDGWSPAVPCLRKCYFPYLENGYNQNYGRKFVQGKSIDVACHPGYALPKAQTTVTCMENGWSPTPRCIRVKTCSKSSIDIENGFISESQYTYALKEKAKYQCKLGYVTADGETSGSITCGKDGWSAQPTCIKSCDIPVFMNARTKNDFTWFKLNDTLDYECHDGYESNTGSTTGSIVCGYNGWSDLPICYERECELPKIDVHLVPDRKKDQYKVGEVLKFSCKPGFTIVGPNSVQCYHFGLSPDLPICKEQVQSCGPPPELLNGNVKEKTKEEYGHSEVVEYYCNPRFLMKGPNKIQCVDGEWTTLPVCIVEESTCGDIPELEHGWAQLSSPPYYYGDSVEFNCSESFTMIGHRSITCIHGVWTQLPQCVAIDKLKKCKSSNLIILEEHLKNKKEFDHNSNIRYRCRGKEGWIHTVCINGRWDPEVNCSMAQIQLCPPPPQIPNSHNMTTTLNYRDGEKVSVLCQENYLIQEGEEITCKDGRWQSIPLCVEKIPCSQPPQIEHGTINSSRSSQESYAHGTKLSYTCEGGFRISEENETTCYMGKWSSPPQCEGLPCKSPPEISHGVVAHMSDSYQYGEEVTYKCFEGFGIDGPAIAKCLGEKWSHPPSCIKTDCLSLPSFENAIPMGEKKDVYKAGEQVTYTCATYYKMDGASNVTCINSRWTGRPTCRDTSCVNPPTVQNAYIVSRQMSKYPSGERVRYQCRSPYEMFGDEEVMCLNGNWTEPPQCKDSTGKCGPPPPIDNGDITSFPLSVYAPASSVEYQCQNLYQLEGNKRITCRNGQWSEPPKCLHPCVISREIMENYNIALRWTAKQKLYSRTGESVEFVCKRGYRLSSRSHTLRTTCWDGKLEYPTCAKR
